Our source for the Kd values is article PMC4919469 (2016).

The target in experiment [1] is T1, Cdc42Δ7Q61L (human, UniProt P60953 1-184, Q61L). In words: direct SPA, GTP-bound Cdc42.
Experiment [2] deals with T1, Cdc42Δ7Q61L. Kind of experiment: direct SPA, GTP-bound Cdc42. The source holds these as a separate data set.
For experiment [3], the target named is T1, Cdc42Δ7Q61L. In words: competition SPA vs GST-WASP GBD.
Target sequence in this assay (P60953 1-184 Q61L): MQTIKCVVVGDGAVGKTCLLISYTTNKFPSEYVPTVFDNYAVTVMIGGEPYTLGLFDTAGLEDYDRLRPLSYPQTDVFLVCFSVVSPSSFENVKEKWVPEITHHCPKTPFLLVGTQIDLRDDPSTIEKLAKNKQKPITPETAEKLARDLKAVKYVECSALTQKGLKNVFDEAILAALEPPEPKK

Some results are limits rather than exact numbers.

As to GLSAQDISQPLQNSFIHTGHGDSDPRHCWGFPDRIDELYLGN (domain or fragment) [GST-ACK GBD], binding with Cdc42Δ7Q61L [1] was characterised by a dissociation constant (Kd) of 46 nM.

B1: His-SNAP-TOCA1 ΔSH3 (residues 1–480) (domain or fragment)
chain: MSWGTELWDQFDNLEKHTQWGIDFLDKYAKFVKERLEIEQNYAKQLRNLVKKYCPKRSAKDEEPRFTSCLSFYNILNELNDYAGQREVVAEEMGHRVYAEIMRYSNDIKGERKSHLQEGRKAQQYLDMCLKQMDNSKRKFERECREAEKAQQTYERLDNDSNATKSDVEKAKQQLHLRTHMADESKNEYAAQLQNYNAEQHKHFYIVIPQVYKHLQEMDERRTVKLSECYKGFADAERKVIPIISKCLEGMVQAAKSVDERRDSQIVVDCFKSGFEPNGDYPFEDYSQHIYRTVSDGTISTPKQESLKPDPRVTVGKAKGKLWLFGKKPKGPALEDFSHLPPEQRRKRLQQRIDELSRELQKEMDQKDALNKMKDVYEKNPQMGDPSSLHPKIAETTSNIERLRMEIHKNEAWLSEVEGKVSQRSERRHSAEANHLVAQGRESPEGSYTEDANQEGRVQPQPHAHPEFDDEFDDDEPLPA
On to B1, for which the Kd in the experiment with Cdc42Δ7Q61L [1] is greater than 1000 nM. On to ISLPSDFEHTIHVGFDAVTGEFTGMPEQWARLLQTSNITKSEQK (domain or fragment) [GST-PAK], for which the affinity in the experiment with Cdc42Δ7Q61L [2], expressed as Kd, was 60 nM.

B2: N-WASP G protein-binding domain (GBD) (residues 197–255) (domain or fragment)
chain: KKKLTKADIGTPSNFQHIGHVGWDPNTGFDVNNLDPELKKLFDLCGISEAQLKDKETSK
For B2, the Kd with Cdc42Δ7Q61L [3] came out at 16 nM.

B3: His-SNAP-TOCA1 (full-length X. tropicalis TOCA1) (natural protein)
chain: MSWGTELWDQFDNLEKHTQWGIDFLDKYAKFVKERLEIEQNYAKQLRNLVKKYCPKRSAKDEEPRFTSCLSFYNILNELNDYAGQREVVAEEMGHRVYAEIMRYSNDIKGERKSHLQEGRKAQQYLDMCLKQMDNSKRKFERECREAEKAQQTYERLDNDSNATKSDVEKAKQQLHLRTHMADESKNEYAAQLQNYNAEQHKHFYIVIPQVYKHLQEMDERRTVKLSECYKGFADAERKVIPIISKCLEGMVQAAKSVDERRDSQIVVDCFKSGFEPNGDYPFEDYSQHIYRTVSDGTISTPKQESLKPDPRVTVGKAKGKLWLFGKKPKGPALEDFSHLPPEQRRKRLQQRIDELSRELQKEMDQKDALNKMKDVYEKNPQMGDPSSLHPKIAETTSNIERLRMEIHKNEAWLSEVEGKVSQRSERRHSAEANHLVAQGRESPEGSYTEDANQEGRVQPQPHAHPEFDDEFDDDEPLPAIGHCKSLYPFDGNNEGTLAMKEGEVLYIIEEDKGDGWTRARKQNGEEGYVPTSYIDITLEKNSKGAVTYI
B3 registered a Kd with Cdc42Δ7Q61L [1] greater than 1000 nM.

By Kd is commonly meant a measure of binding affinity in units of concentration.
